Results on five molecules are retold here after patent US20150344570A1 (published 2015).

Experiment [1] has as its target T1, FcγRIIa R extracellular domain with C-terminal His tag (human, UniProt P12318 34-217).
T1 construct: extracellular domain; Soluble receptor, R131 allotype; also called FcgRIIa R; FcgRIIaR; not shown: His tag at the C terminus
T1 sequence (looked up): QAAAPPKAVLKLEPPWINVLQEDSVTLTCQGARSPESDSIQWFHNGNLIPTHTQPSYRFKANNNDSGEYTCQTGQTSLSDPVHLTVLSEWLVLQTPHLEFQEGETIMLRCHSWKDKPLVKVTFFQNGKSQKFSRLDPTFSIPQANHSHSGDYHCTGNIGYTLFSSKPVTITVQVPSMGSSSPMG
In words: SPR (Biacore); ratio KD for FcγRIIb / KD for FcγRIIa R. Here is the method:
(§1) These antibodies were assessed for the binding activity to each FcγR according to the method described in Reference Example 2.
(§2) Analysis of interaction between objective antibody and the FcγR was carried out using Biacore T100 (GE Healthcare). HBS-EP+ (GE Healthcare) was used as the running buffer, and the measurement temperature was set to 25° C. Chips produced by immobilizing the antigen peptide by the amine coupling method to a Series S Sencor Chip CM5 (GE Healthcare), or alternatively, chips produced by allowing preliminarily biotinylated antigen peptides to interact with and immobilize onto a Series S Sensor Chip SA (certified) (GE Healthcare) were used. Antibodies of interest were captured onto an antigen peptide-immobilized chip, and allowed to interact to each FcγR diluted with running buffer. To regenerate and repeatedly use the chip, the antibodies captured on the chip were washed off by reacting 10 mM glycine-HCl, pH 1.5.

Experiment [2] has as its target T2, FcγRIIa H extracellular domain with C-terminal His tag (human, UniProt P12318 34-217).
T2 construct: extracellular domain; Soluble receptor, H131 allotype; also called FcgRIIa H; FcgRIIaH; not shown: His tag at the C terminus
T2 sequence (looked up): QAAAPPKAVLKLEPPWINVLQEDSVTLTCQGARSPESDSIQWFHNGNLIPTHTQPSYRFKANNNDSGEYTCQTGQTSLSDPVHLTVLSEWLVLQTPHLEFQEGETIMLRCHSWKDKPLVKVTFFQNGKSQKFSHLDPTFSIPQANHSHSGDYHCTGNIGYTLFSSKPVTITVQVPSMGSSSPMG
As to the kind of experiment: SPR (Biacore); ratio KD for FcγRIIb / KD for FcγRIIa H. Here is the method:
as §1, §2
On the technique in general: In SPR one partner is held on a chip, and binding of the other changes the refractive index at the surface.

B1: GpH7-Kn033/GpH7-Hl033/GpL16-k0 (antibody, human IgG1, kappa)
heavy 1: not shown
heavy 2: not shown
light: DIVMTQSPLSLPVTPGEPASISCQASESLVHSNRNTYLHWYLQKPGQSPQLLIYKVSNRFSGVPDRFSGSGSGTDFTLKISRVEAEDVGVYYCSQNTHVPPTFGQGTKVEIERTVAAPSVFIFPPSDEQLKSGTASVVCLLNNFYPREAKVQWKVDNALQSGNSQESVTEQDSKDSTYSLSSTLTLSKADYEKHKVYACEVTHQGLSSPVTKSFNRGEC
notes: Anti-glypican-3 IgG1 (G1d, C-terminal Gly-Lys removed) with knobs-into-holes alterations only; also called Kn033/Hl033
On to B1, for which the results for the A/I ratio in experiment [1] and in experiment [2] were 4.9 and 6.2, respectively.

B2: GpH7-Kn037/GpH7-Hl036/GpL16-k0 (antibody, human IgG1, kappa)
heavy 1: QVQLVQSGAEVKKPGASVTVSCKASGYTFTDYEMHWIRQPPGEGLEWIGAIDPKTGDTAYSESFQDRVTLTADKSTSTAYMELSSLTSEDTAVYYCTRFYSYTYWGQGTLVTVSSASTKGPSVFPLAPSSKSTSGGTAALGCLVKDYFPEPVTVSWNSGALTSGVHTFPAVLQSSGLYSLSSVVTVPSSSLGTQTYICNVNHKPSNTKVDKKVEPKSCDKTHTCPPCPAPELLAGPDVFLFPPKPKDTLMISRTPEVTCVVVDVSHEDPEVKFNWYVDGVEVHNAKTKPREEQYNSTYRVVSVLTVLHQDWLNGKEYKCKVSNKALPAPEEKTISKAKGQPREPQVCTLPPSRDELTKNQVSLWCLVKGFYPSDIAVEWESNGQPENNYKTTPPVLDSDGSFFLYSKLTVDKSRWQQGNVFSCSVMHEALHNHYTQKSLSLSP
heavy 2: QVQLVQSGAEVKKPGASVTVSCKASGYTFTDYEMHWIRQPPGEGLEWIGAIDPKTGDTAYSESFQDRVTLTADKSTSTAYMELSSLTSEDTAVYYCTRFYSYTYWGQGTLVTVSSASTKGPSVFPLAPSSKSTSGGTAALGCLVKDYFPEPVTVSWNSGALTSGVHTFPAVLQSSGLYSLSSVVTVPSSSLGTQTYICNVNHKPSNTKVDKKVEPKSCDKTHTCPPCPAPELLAGPDVFLFPPKPKDTLMISRTPEVTCVVVDVSHEDPEVKFNWYVDGVEVHNAKTKPREEQYNSTYRVVSVLTVLHQDWLNGKEYKCKVSNKALPAPEEKTISKAKGQPREPQVYTLPPSRCELTKNQVSLSCAVKGFYPSDIAVEWESNGQPENNYKTTPPVLDSDGSFFLVSKLTVDKSRWQQGNVFSCSVMHEALHNHYTQKSLSLSP
light: DIVMTQSPLSLPVTPGEPASISCQASESLVHSNRNTYLHWYLQKPGQSPQLLIYKVSNRFSGVPDRFSGSGSGTDFTLKISRVEAEDVGVYYCSQNTHVPPTFGQGTKVEIERTVAAPSVFIFPPSDEQLKSGTASVVCLLNNFYPREAKVQWKVDNALQSGNSQESVTEQDSKDSTYSLSSTLTLSKADYEKHKVYACEVTHQGLSSPVTKSFNRGEC
notes: Anti-glypican-3 IgG1, knobs-into-holes; also called Kn037/Hl036
B2: the A/I ratio came out at 13 in experiment [1] and 8.6 in experiment [2].

B3: GpH7-Kn045/GpH7-Hl048/GpL16-k0 (antibody, human IgG1, kappa)
heavy 1: QVQLVQSGAEVKKPGASVTVSCKASGYTFTDYEMHWIRQPPGEGLEWIGAIDPKTGDTAYSESFQDRVTLTADKSTSTAYMELSSLTSEDTAVYYCTRFYSYTYWGQGTLVTVSSASTKGPSVFPLAPSSKSTSGGTAALGCLVKDYFPEPVTVSWNSGALTSGVHTFPAVLQSSGLYSLSSVVTVPSSSLGTQTYICNVNHKPSNTKVDKKVEPKSCDKTHTCPPCPAPEYYAGPSVFLFPPKPKDTLMISRTPEVTCVVVDVSDEDPEVKFNWYVDGVEVHNAKTKPREEQYNATYRVVSVLTVLHQDWLNGKEYKCKVSNKALPAPIEKTISKAKGQPREPQVCTLPPSRDELTKNQVSLWCLVKGFYPSDIAVEWESNGQPENNYKTTPPVLDSDGSFFLYSKLTVDKSRWQQGNVFSCSVMHEALHNHYTQKSLSLSP
heavy 2: QVQLVQSGAEVKKPGASVTVSCKASGYTFTDYEMHWIRQPPGEGLEWIGAIDPKTGDTAYSESFQDRVTLTADKSTSTAYMELSSLTSEDTAVYYCTRFYSYTYWGQGTLVTVSSASTKGPSVFPLAPSSKSTSGGTAALGCLVKDYFPEPVTVSWNSGALTSGVHTFPAVLQSSGLYSLSSVVTVPSSSLGTQTYICNVNHKPSNTKVDKKVEPKSCDKTHTCPPCPAPELLAGPDVFLFPPKPKDTLMISRTPEVTCVVVDVSHEDPEVKFNWYVDGVEVHNAKTKPREEQYNSTYRVVSVLTVLHQDWLNGKEYKCKVSNKALPKPEEKTISKAKGQPREPQVYTLPPSRCELTKNQVSLSCAVKGFYPSDIAVEWESNGQPENNYKTTPPVLDSDGSFFLVSKLTVDKSRWQQGNVFSCSVMHEALHNHYTQKSLSLSP
light: DIVMTQSPLSLPVTPGEPASISCQASESLVHSNRNTYLHWYLQKPGQSPQLLIYKVSNRFSGVPDRFSGSGSGTDFTLKISRVEAEDVGVYYCSQNTHVPPTFGQGTKVEIERTVAAPSVFIFPPSDEQLKSGTASVVCLLNNFYPREAKVQWKVDNALQSGNSQESVTEQDSKDSTYSLSSTLTLSKADYEKHKVYACEVTHQGLSSPVTKSFNRGEC
notes: Heterodimerized anti-glypican-3 IgG1, knobs-into-holes; also called Kn045/Hl048
In the case of B3, the A/I ratio in experiment [1] worked out at 22; in experiment [2] it was 9.5.

B4: GpH7-Kn032/GpH7-Hl032/GpL16-k0 (antibody, human IgG1, kappa)
heavy 1: QVQLVQSGAEVKKPGASVTVSCKASGYTFTDYEMHWIRQPPGEGLEWIGAIDPKTGDTAYSESFQDRVTLTADKSTSTAYMELSSLTSEDTAVYYCTRFYSYTYWGQGTLVTVSSASTKGPSVFPLAPSSKSTSGGTAALGCLVKDYFPEPVTVSWNSGALTSGVHTFPAVLQSSGLYSLSSVVTVPSSSLGTQTYICNVNHKPSNTKVDKKVEPKSCDKTHTCPPCPAPELLGGPDVFLFPPKPKDTLMISRTPEVTCVVVDVSHEDPEVKFNWYVDGVEVHNAKTKPREEQYNSTYRVVSVLTVLHQDWLNGKEYKCKVSNKALPLPEEKTISKAKGQPREPQVCTLPPSRDELTKNQVSLWCLVKGFYPSDIAVEWESNGQPENNYKTTPPVLDSDGSFFLYSKLTVDKSRWQQGNVFSCSVMHEALHNHYTQKSLSLSP
heavy 2: QVQLVQSGAEVKKPGASVTVSCKASGYTFTDYEMHWIRQPPGEGLEWIGAIDPKTGDTAYSESFQDRVTLTADKSTSTAYMELSSLTSEDTAVYYCTRFYSYTYWGQGTLVTVSSASTKGPSVFPLAPSSKSTSGGTAALGCLVKDYFPEPVTVSWNSGALTSGVHTFPAVLQSSGLYSLSSVVTVPSSSLGTQTYICNVNHKPSNTKVDKKVEPKSCDKTHTCPPCPAPELLGGPDVFLFPPKPKDTLMISRTPEVTCVVVDVSHEDPEVKFNWYVDGVEVHNAKTKPREEQYNSTYRVVSVLTVLHQDWLNGKEYKCKVSNKALPLPEEKTISKAKGQPREPQVYTLPPSRCELTKNQVSLSCAVKGFYPSDIAVEWESNGQPENNYKTTPPVLDSDGSFFLVSKLTVDKSRWQQGNVFSCSVMHEALHNHYTQKSLSLSP
light: DIVMTQSPLSLPVTPGEPASISCQASESLVHSNRNTYLHWYLQKPGQSPQLLIYKVSNRFSGVPDRFSGSGSGTDFTLKISRVEAEDVGVYYCSQNTHVPPTFGQGTKVEIERTVAAPSVFIFPPSDEQLKSGTASVVCLLNNFYPREAKVQWKVDNALQSGNSQESVTEQDSKDSTYSLSSTLTLSKADYEKHKVYACEVTHQGLSSPVTKSFNRGEC
notes: Anti-glypican-3 IgG1, knobs-into-holes; both H chains carry S239D/A330L/I332E; also called Kn032/Hl032
For the molecule B4, the A/I ratio in experiment [1] came out at 1.8; in experiment [2], 0.93.

B5: GpH7-Kn045/GpH7-Hl055/GpL16-k0 (antibody, human IgG1, kappa)
heavy 1: QVQLVQSGAEVKKPGASVTVSCKASGYTFTDYEMHWIRQPPGEGLEWIGAIDPKTGDTAYSESFQDRVTLTADKSTSTAYMELSSLTSEDTAVYYCTRFYSYTYWGQGTLVTVSSASTKGPSVFPLAPSSKSTSGGTAALGCLVKDYFPEPVTVSWNSGALTSGVHTFPAVLQSSGLYSLSSVVTVPSSSLGTQTYICNVNHKPSNTKVDKKVEPKSCDKTHTCPPCPAPEYYAGPSVFLFPPKPKDTLMISRTPEVTCVVVDVSDEDPEVKFNWYVDGVEVHNAKTKPREEQYNATYRVVSVLTVLHQDWLNGKEYKCKVSNKALPAPIEKTISKAKGQPREPQVCTLPPSRDELTKNQVSLWCLVKGFYPSDIAVEWESNGQPENNYKTTPPVLDSDGSFFLYSKLTVDKSRWQQGNVFSCSVMHEALHNHYTQKSLSLSP
heavy 2: QVQLVQSGAEVKKPGASVTVSCKASGYTFTDYEMHWIRQPPGEGLEWIGAIDPKTGDTAYSESFQDRVTLTADKSTSTAYMELSSLTSEDTAVYYCTRFYSYTYWGQGTLVTVSSASTKGPSVFPLAPSSKSTSGGTAALGCLVKDYFPEPVTVSWNSGALTSGVHTFPAVLQSSGLYSLSSVVTVPSSSLGTQTYICNVNHKPSNTKVDKKVEPKSCDKTHTCPPCPAPELLAGPDVFLFPPKPKDTLMISRTPEVTCVVVDVSHEDPEVKFNWYVDGVEVHNAKTKPREELYNSTYRVVSVLTVLHQDWLNGKEYKCKVSNKALPMPEEKTISKAKGQPREPQVYTLPPSRCELTKNQVSLSCAVKGFYPSDIAVEWESNGQPENNYKTTPPVLDSDGSFFLVSKLTVDKSRWQQGNVFSCSVMHEALHNHYTQKSLSLSP
light: DIVMTQSPLSLPVTPGEPASISCQASESLVHSNRNTYLHWYLQKPGQSPQLLIYKVSNRFSGVPDRFSGSGSGTDFTLKISRVEAEDVGVYYCSQNTHVPPTFGQGTKVEIERTVAAPSVFIFPPSDEQLKSGTASVVCLLNNFYPREAKVQWKVDNALQSGNSQESVTEQDSKDSTYSLSSTLTLSKADYEKHKVYACEVTHQGLSSPVTKSFNRGEC
notes: Heterodimerized anti-glypican-3 IgG1, knobs-into-holes; also called Kn045/Hl055
Turning to B5, the results for the A/I ratio in experiment [1] and in experiment [2] were 18 and 8.3, respectively.
